Measured values reported in the Immune Epitope Database (IEDB).
pIC50, pKd: −log10 of the molar value.

What was measured:
[1] = biological target: HLA-C*14:02; test: IEDB peptide-MHC binding, purified MHC/direct/fluorescence; filed as Kd, often an IC50 or EC50 that approximates it; ≥ and ≤ were set here for values at or beyond the usual limits of such assays
[2] = biological target: HLA-B*40:01; test: as above; details: source organism: Mycobacterium tuberculosis
[3] = biological target: HLA-A*02:01; test: IEDB peptide-MHC binding, purified MHC/competitive/radioactivity; ≥ and ≤ were set here for values at or beyond the usual limits of such assays
[4] = biological target: HLA-A*11:01; test: IEDB peptide-MHC binding, purified MHC/competitive/fluorescence; filed as Kd, often an IC50 or EC50 that approximates it; ≥ and ≤ were set here for values at or beyond the usual limits of such assays; details: source organism: Influenza A virus (A/goose/Hong Kong/739.2/2002(H5N1))
[5] = biological target: HLA-B*35:01; test: as above; details: source organism: Mammarenavirus machupoense
[6] = biological target: HLA-A*26:01; test: IEDB peptide-MHC binding, purified MHC/direct/fluorescence; filed as Kd, often an IC50 or EC50 that approximates it; ≥ and ≤ were set here for values at or beyond the usual limits of such assays; details: source organism: Mammarenavirus juninense
[7] = biological target: HLA-C*12:03; test: as above; details: source organism: Mammarenavirus machupoense
[8] = biological target: HLA-B*51:01; test: as above
[9] = biological target: HLA-A*24:02; test: as above
[10] = biological target: HLA-B*07:02; test: IEDB peptide-MHC binding, purified MHC/competitive/radioactivity; filed as Kd, often an IC50 or EC50 that approximates it; ≥ and ≤ were set here for values at or beyond the usual limits of such assays; details: source organism: Vaccinia virus WR
[11] = biological target: HLA-A*11:01; test: as above; details: source organism: Vaccinia virus WR
[12] = biological target: HLA-B*51:01; test: as above; details: source organism: Vaccinia virus WR
[13] = biological target: HLA-B*54:01; test: as above; details: source organism: Vaccinia virus WR
[14] = biological target: HLA-A*33:01; test: as above; details: source organism: Vaccinia virus WR
[15] = biological target: HLA-B*53:01; test: as above; details: source organism: Vaccinia virus WR
[16] = biological target: HLA-A*03:01; test: as above; details: source organism: Vaccinia virus WR
[17] = biological target: HLA-A*31:01; test: as above; details: source organism: Vaccinia virus WR
[18] = biological target: HLA-B*35:01; test: as above; details: source organism: Vaccinia virus WR
[19] = biological target: HLA-A*68:01; test: as above; details: source organism: Vaccinia virus WR
[20] = biological target: HLA-A*02:01; test: IEDB peptide-MHC binding, purified MHC/competitive/fluorescence; filed as Kd, often an IC50 or EC50 that approximates it; ≥ and ≤ were set here for values at or beyond the usual limits of such assays
[21] = biological target: HLA-C*06:02; test: IEDB peptide-MHC binding, purified MHC/direct/fluorescence; filed as Kd, often an IC50 or EC50 that approximates it; ≥ and ≤ were set here for values at or beyond the usual limits of such assays
[22] = biological target: HLA-B*39:01; test: IEDB peptide-MHC binding, purified MHC/competitive/fluorescence; filed as Kd, often an IC50 or EC50 that approximates it; ≥ and ≤ were set here for values at or beyond the usual limits of such assays
[23] = biological target: HLA-A*26:01; test: as above; details: source organism: Orthohantavirus andesense
[24] = biological target: HLA-B*46:01; test: as above; details: source organism: Orthohantavirus andesense
[25] = biological target: HLA-B*15:01; test: as above; details: source organism: Orthohantavirus andesense
[26] = biological target: HLA-B*18:01; test: as above; details: source organism: Orthohantavirus andesense
[27] = biological target: HLA-B*27:03; test: as above; details: source organism: Orthohantavirus andesense
[28] = biological target: HLA-B*58:01; test: as above; details: source organism: Orthohantavirus andesense
[29] = biological target: HLA-A*69:01; test: as above; details: source organism: Orthohantavirus andesense
[30] = biological target: HLA-A*02:19; test: IEDB peptide-MHC binding, purified MHC/direct/fluorescence; filed as Kd, often an IC50 or EC50 that approximates it; ≥ and ≤ were set here for values at or beyond the usual limits of such assays; details: source organism: Orthohantavirus andesense
[31] = biological target: HLA-A*29:02; test: as above; details: source organism: Orthohantavirus andesense
[32] = biological target: HLA-A*02:12; test: as above; details: source organism: Orthohantavirus andesense
[33] = biological target: HLA-A*24:03; test: as above; details: source organism: Orthohantavirus andesense
[34] = biological target: HLA-A*03:01; test: as above; details: source organism: Orthohantavirus andesense
[35] = biological target: HLA-A*02:03; test: as above; details: source organism: Orthohantavirus andesense
[36] = biological target: HLA-A*02:16; test: as above; details: source organism: Orthohantavirus andesense
[37] = biological target: HLA-A*02:11; test: as above; details: source organism: Orthohantavirus andesense
[38] = biological target: HLA-A*68:02; test: as above; details: source organism: Orthohantavirus andesense
[39] = biological target: HLA-B*15:01; test: as above
[40] = biological target: HLA-B*07:02; test: as above
[41] = biological target: HLA-A*02:12; test: IEDB peptide-MHC binding, purified MHC/competitive/fluorescence; filed as Kd, often an IC50 or EC50 that approximates it; ≥ and ≤ were set here for values at or beyond the usual limits of such assays; details: source organism: Entamoeba histolytica HM-1:IMSS
[42] = biological target: HLA-B*27:05; test: IEDB peptide-MHC binding, purified MHC/direct/fluorescence; filed as Kd, often an IC50 or EC50 that approximates it; ≥ and ≤ were set here for values at or beyond the usual limits of such assays; details: source organism: Homo sapiens
[43] = biological target: HLA-A*31:01; test: as above; details: source organism: Homo sapiens
[44] = biological target: HLA-A*69:01; test: as above; details: source organism: Camelpox virus M-96
[45] = biological target: HLA-A*02:01; test: as above; details: source organism: Camelpox virus M-96
[46] = source organism: Mycobacterium tuberculosis H37Ra
[47] = source organism: Vaccinia virus GLV-1h68
[48] = source organism: Bacillus anthracis str. A0488
[49] = source organism: Orthohantavirus andesense
[50] = source organism: Burkholderia mallei
[51] = source organism: Yersinia pestis CA88-4125
[52] = source organism: Yersinia pestis

## AEAASATPL
[1]; [46]
  pKd: ≤ 4.70
[2]
  pKd: 7.66

## ALDGGNKHFL
[3]; source organism: Homo sapiens
  pIC50: 7.38

## ASYKIFRIEK
[4]
  pKd: 9.05

## DAMPGVLSY
[5]
  pKd: 9.30
[6]
  pKd: 8.68
[7]
  pKd: ≤ 4.70

## GLIDIAPHQI
[3]; [46]
  pIC50: 7.31

## GLLGSPVRA
[3]; source organism: Homo sapiens
  pIC50: 6.66

## GPAEARKVC
[8]; source organism: Yellow fever virus
  pKd: ≤ 4.70

## IYPEWYFLW
[9]; source organism: Campylobacter jejuni subsp. jejuni 81116
  pKd: ≥ 9.00

## KFITHPFLW
[9]; source organism: Entamoeba histolytica HM-1:IMSS
  pKd: ≥ 9.00

## LMYDIINSV
[10]
  pKd: ≤ 4.11
[11]
  pKd: 5.89
[12]
  pKd: ≤ 4.26
[13]
  pKd: 6.59
[14]
  pKd: ≤ 4.69
[15]
  pKd: ≤ 4.11
[16]
  pKd: ≤ 4.45
[17]
  pKd: 5.34
[18]
  pKd: ≤ 4.11
[19]
  pKd: ≤ 4.11
[20]; [47]
  pKd: 9.22
[21]; [47]
  pKd: 5.35

## LNTSAGFPYV
[3]; source organism: Rhinovirus C
  pIC50: 6.30

## LRHSTAHLL
[22]; [48]
  pKd: 7.15
[21]; [48]
  pKd: 7.89

## NALEKALRW
[23]
  pKd: ≤ 4.70
[24]
  pKd: ≤ 4.70
[25]
  pKd: ≤ 4.70
[26]
  pKd: ≤ 4.70
[27]
  pKd: ≤ 4.70
[22]; [49]
  pKd: ≤ 4.70
[28]
  pKd: 7.59
[29]
  pKd: ≤ 4.70
[20]; [49]
  pKd: ≤ 4.70
[30]
  pKd: ≤ 4.70
[31]
  pKd: ≤ 4.70
[32]
  pKd: ≤ 4.70
[33]
  pKd: ≤ 4.70
[34]
  pKd: ≤ 4.70
[35]
  pKd: ≤ 4.70
[36]
  pKd: ≤ 4.70
[37]
  pKd: ≤ 4.70
[38]
  pKd: ≤ 4.70

## NPVDGSIWY
[39]; source organism: Burkholderia mallei ATCC 23344
  pKd: ≤ 4.70
[40]; [50]
  pKd: ≤ 4.70
[8]; [50]
  pKd: ≤ 4.70

## NQNDNEETV
[41]
  pKd: 7.39

## RYFSVTRPL
[40]; source organism: Homo sapiens
  pKd: ≤ 4.56
[1]; source organism: Anopheles gambiae str. PEST
  pKd: ≥ 9.00
[42]
  pKd: 4.97
[43]
  pKd: 6.29

## TFAWASFLW
[9]; [51]
  pKd: 8.52

## TPFEVETRL
[39]; [51]
  pKd: ≤ 4.70
[40]; [52]
  pKd: 6.08
[8]; [52]
  pKd: ≤ 4.70

## VLSEWLPVT
[3]; source organism: Rift Valley fever virus
  pIC50: 7.82

## YLMPYSVYI
[21]; source organism: Variola virus
  pKd: 8.15
[44]
  pKd: ≥ 9.00
[45]
  pKd: ≥ 9.00
